Experimental data taken from article PMC7714071, “Interaction of amyloid beta with humanin and acetylcholinesterase is modulated by ATP” (FEBS Open Bio, 2020).

How the values were obtained:
[1] = target: Aβ from A549 cell‐conditioned media (human (endogenous in A549)); assay: ELISA; antibody (6E10 or 82E1 against Aβ, or anti‐HN, or anti‐AChE) bound to the wells; 300 μL conditioned medium (0.5 μg·μL^−1) added without or with ATP (100 μM, 1 mM); the partner held with the captured protein detected by its primary antibody
[2] = target: Aβ from A549 cell‐conditioned media (human (endogenous in A549)); assay: ELISA; single‐site ELISA for oligomerized Aβ (capture 4G8, detection 4G8‐biotin) against two‐site ELISA for total Aβ (capture 6E10, detection 4G8‐biotin); conditioned media, control or immunodepleted of HN or AChE, without or with ATP
[3] = target: Aβ from H1299 cell‐conditioned media (human (endogenous in H1299)); assay: as above

Chain of AChE from A549 cell‐conditioned media (P22303 32-614): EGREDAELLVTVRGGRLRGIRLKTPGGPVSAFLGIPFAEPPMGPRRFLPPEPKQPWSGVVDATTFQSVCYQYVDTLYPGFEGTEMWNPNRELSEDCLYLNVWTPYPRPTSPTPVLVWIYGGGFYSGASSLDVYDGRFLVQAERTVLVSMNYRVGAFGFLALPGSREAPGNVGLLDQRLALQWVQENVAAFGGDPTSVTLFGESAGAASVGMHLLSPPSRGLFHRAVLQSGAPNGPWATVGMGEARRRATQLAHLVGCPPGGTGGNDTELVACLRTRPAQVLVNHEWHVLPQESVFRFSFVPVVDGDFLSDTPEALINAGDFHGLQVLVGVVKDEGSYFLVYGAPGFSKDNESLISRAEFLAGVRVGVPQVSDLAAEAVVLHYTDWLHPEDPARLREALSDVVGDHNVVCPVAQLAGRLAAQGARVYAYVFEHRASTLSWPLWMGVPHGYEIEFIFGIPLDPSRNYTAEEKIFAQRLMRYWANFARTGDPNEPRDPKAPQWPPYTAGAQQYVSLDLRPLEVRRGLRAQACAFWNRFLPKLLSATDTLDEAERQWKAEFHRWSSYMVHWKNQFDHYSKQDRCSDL

## AChE from A549 cell‐conditioned media (from UniProt P22303 32-614) (enzyme)
[1]
  fold decrease in AChE in a complex with Aβ with 100 μM ATP, relative to samples without added ATP: 2.3 fold

## Aβ from A549 cell‐conditioned media (peptide)
[2]
  percent oligomer of the total Aβ that remained after immunodepletion of AChE: 47%
  percent oligomer of the total Aβ that remained after immunodepletion of HN: 86%
  percent oligomer of total Aβ: 63%

## Aβ from H1299 cell‐conditioned media (peptide)
[3]
  percent oligomer of the total Aβ that remained after immunodepletion of HN: 69%
  percent oligomer of total Aβ: 48%

## HN from A549 cell‐conditioned media (peptide)
[1]
  fold increase in HN bound to Aβ with 100 μM ATP, relative to samples without added ATP: 1.85 fold
  fold increase in HN bound to Aβ with 1 mM ATP, relative to samples without added ATP: 2.5 fold
